Columns and labels:
HIV gp120 Bal = HIV gp120 Bal (HIV); assay: single-point ELISA; note: test concentration or dose not given here
HIV gp120 CAAN = HIV gp120 CAAN (HIV); assay: single-point ELISA; note: test concentration or dose not given here

Binder | ELISA (A450) (HIV gp120 Bal) | ELISA (A450) (HIV gp120 CAAN)
1.1.32-1 (antibody, human IgG1, kappa) heavy: QVQLLQSGAAVTKPGASVRVSCEASGYNIRDYFIHWWRQAPGQGLQWVGWINPKTGQPNNPRQFQGRVSLTRHASWDFDTFSFYMDLKALRSDDTAVYFCARQRSDYWDFDVWGSGTQVTVSSASTKGPSVFPLAPSSKSTSGGTAALGCLVKDYFPEPVTVSWNSGALTSGVHTFPAVLQSSGLYSLSSVVTVPSSSLGTQTYICNVNHKPSNTKVDKKVEPKSCDKTHTCPPCPAPELLAGPDVFLFPPKPKDTLMISRTPEVTCVVVDVSHEDPEVKFNWYVDGVEVHNAKTKPREEQYNSTYRVVSVLTVLHQDWLNGKEYKCKVSNKALPLPEEKTISKAKGQPREPQVYTLPPSREEMTKNQVSLTCLVKGFYPSDIAVEWESNGQPENNYKTTPPVLDSDGSFFLYSKLTVDKSRWQQGNVFSCSVLHEALHSHYTQKSLSLSPGK light: DIQMTQSPSSLSASVGDTVTITCQANGYLNWYQQRRGKAPKLLIYDGSKLERGVPSRFSGRRWGQEYTLTISSLQPEDIATYFCQVYEFVTPGTRLDLKRTVAAPSVFIFPPSDEQLKSGTASVVCLLNNFYPREAKVQWKVDNALQSGNSQESVTEQDSKDSTYSLSSTLTLSKADYEKHKVYACEVTHQGLSSPVTKSFNRGEC | 0.93 | 1.04
1.33.32-1 (antibody, human IgG1, kappa) heavy: QVQLVQSGAEVKKPGASVRVSCKASGYNIRDYFIHWWRQAPGQGLQWVGWINPKTGQPNNPRQFQGRVTLTRHASWDFDTFSFYMDLKALRSDDTATYFCARQRSDYWDFDVWGSGTQVTVSSASTKGPSVFPLAPSSKSTSGGTAALGCLVKDYFPEPVTVSWNSGALTSGVHTFPAVLQSSGLYSLSSVVTVPSSSLGTQTYICNVNHKPSNTKVDKKVEPKSCDKTHTCPPCPAPELLAGPDVFLFPPKPKDTLMISRTPEVTCVVVDVSHEDPEVKFNWYVDGVEVHNAKTKPREEQYNSTYRVVSVLTVLHQDWLNGKEYKCKVSNKALPLPEEKTISKAKGQPREPQVYTLPPSREEMTKNQVSLTCLVKGFYPSDIAVEWESNGQPENNYKTTPPVLDSDGSFFLYSKLTVDKSRWQQGNVFSCSVLHEALHSHYTQKSLSLSPGK light: DIQMTQSPSSLSASVGDTVTITCQANGYLNWYQQRRGKAPKLLIYDGSKLERGVPSRFSGRRWGQEYTLTISSLQPEDIATYFCQVYEFVTPGTRLDLKRTVAAPSVFIFPPSDEQLKSGTASVVCLLNNFYPREAKVQWKVDNALQSGNSQESVTEQDSKDSTYSLSSTLTLSKADYEKHKVYACEVTHQGLSSPVTKSFNRGEC | 0.98 | 1.13
1.31.32-1 (antibody, human IgG1, kappa) heavy: QVQLVQSGAEVTKPGASVRVSCEASGYNIRDYFIHWWRQAPGQGLQWVGWINPKTGQPNNPRQFQGRVSLTRHASWDFDTFSFYMDLKALRSDDTATYFCARQRSDYWDFDVWGSGTQVTVSSASTKGPSVFPLAPSSKSTSGGTAALGCLVKDYFPEPVTVSWNSGALTSGVHTFPAVLQSSGLYSLSSVVTVPSSSLGTQTYICNVNHKPSNTKVDKKVEPKSCDKTHTCPPCPAPELLAGPDVFLFPPKPKDTLMISRTPEVTCVVVDVSHEDPEVKFNWYVDGVEVHNAKTKPREEQYNSTYRVVSVLTVLHQDWLNGKEYKCKVSNKALPLPEEKTISKAKGQPREPQVYTLPPSREEMTKNQVSLTCLVKGFYPSDIAVEWESNGQPENNYKTTPPVLDSDGSFFLYSKLTVDKSRWQQGNVFSCSVLHEALHSHYTQKSLSLSPGK light: DIQMTQSPSSLSASVGDTVTITCQANGYLNWYQQRRGKAPKLLIYDGSKLERGVPSRFSGRRWGQEYTLTISSLQPEDIATYFCQVYEFVTPGTRLDLKRTVAAPSVFIFPPSDEQLKSGTASVVCLLNNFYPREAKVQWKVDNALQSGNSQESVTEQDSKDSTYSLSSTLTLSKADYEKHKVYACEVTHQGLSSPVTKSFNRGEC | 0.98 | 1.04
1.32.32-1 (antibody, human IgG1, kappa) heavy: QVQLVQSGAEVTKPGASVRVSCEASGYNIRDYFIHWWRQAPGQGLQWVGWINPKTGQPNNPRQFQGRVSLTRHASWDFDTFSFYMDLKALRSDDTAVYFCARQRTDYWDFDVWGSGTQVTVSSASTKGPSVFPLAPSSKSTSGGTAALGCLVKDYFPEPVTVSWNSGALTSGVHTFPAVLQSSGLYSLSSVVTVPSSSLGTQTYICNVNHKPSNTKVDKKVEPKSCDKTHTCPPCPAPELLAGPDVFLFPPKPKDTLMISRTPEVTCVVVDVSHEDPEVKFNWYVDGVEVHNAKTKPREEQYNSTYRVVSVLTVLHQDWLNGKEYKCKVSNKALPLPEEKTISKAKGQPREPQVYTLPPSREEMTKNQVSLTCLVKGFYPSDIAVEWESNGQPENNYKTTPPVLDSDGSFFLYSKLTVDKSRWQQGNVFSCSVLHEALHSHYTQKSLSLSPGK light: DIQMTQSPSSLSASVGDTVTITCQANGYLNWYQQRRGKAPKLLIYDGSKLERGVPSRFSGRRWGQEYTLTISSLQPEDIATYFCQVYEFVTPGTRLDLKRTVAAPSVFIFPPSDEQLKSGTASVVCLLNNFYPREAKVQWKVDNALQSGNSQESVTEQDSKDSTYSLSSTLTLSKADYEKHKVYACEVTHQGLSSPVTKSFNRGEC | 0.89 | 0.9
1.34.32-1 (antibody, human IgG1, kappa) heavy: QVQLVQSGAEVKKPGASVRVSCKASGYNIRDYFIHWWRQAPGQGLQWVGWINPKTGQPNNPRQFQGRVTLTRHASWDFDTFSFYMDLKALRSDDTAVYFCARQRTDYWDFDVWGSGTQVTVSSASTKGPSVFPLAPSSKSTSGGTAALGCLVKDYFPEPVTVSWNSGALTSGVHTFPAVLQSSGLYSLSSVVTVPSSSLGTQTYICNVNHKPSNTKVDKKVEPKSCDKTHTCPPCPAPELLAGPDVFLFPPKPKDTLMISRTPEVTCVVVDVSHEDPEVKFNWYVDGVEVHNAKTKPREEQYNSTYRVVSVLTVLHQDWLNGKEYKCKVSNKALPLPEEKTISKAKGQPREPQVYTLPPSREEMTKNQVSLTCLVKGFYPSDIAVEWESNGQPENNYKTTPPVLDSDGSFFLYSKLTVDKSRWQQGNVFSCSVLHEALHSHYTQKSLSLSPGK light: DIQMTQSPSSLSASVGDTVTITCQANGYLNWYQQRRGKAPKLLIYDGSKLERGVPSRFSGRRWGQEYTLTISSLQPEDIATYFCQVYEFVTPGTRLDLKRTVAAPSVFIFPPSDEQLKSGTASVVCLLNNFYPREAKVQWKVDNALQSGNSQESVTEQDSKDSTYSLSSTLTLSKADYEKHKVYACEVTHQGLSSPVTKSFNRGEC | 0.93 | 0.97
1.36.32-1 (antibody, human IgG1, kappa) heavy: QVQLVQSGAEVKKPGASVRVSCKASGYNIRDYFMHWWRQAPGQGLQWVGWINPKTGQPNNPRQFQGRVTMTRHASWDFDTFSAYMDLSRLRSDDTATYFCARQRTDYWDFDVWGQGTMVTVSSASTKGPSVFPLAPSSKSTSGGTAALGCLVKDYFPEPVTVSWNSGALTSGVHTFPAVLQSSGLYSLSSVVTVPSSSLGTQTYICNVNHKPSNTKVDKKVEPKSCDKTHTCPPCPAPELLAGPDVFLFPPKPKDTLMISRTPEVTCVVVDVSHEDPEVKFNWYVDGVEVHNAKTKPREEQYNSTYRVVSVLTVLHQDWLNGKEYKCKVSNKALPLPEEKTISKAKGQPREPQVYTLPPSREEMTKNQVSLTCLVKGFYPSDIAVEWESNGQPENNYKTTPPVLDSDGSFFLYSKLTVDKSRWQQGNVFSCSVLHEALHSHYTQKSLSLSPGK light: DIQMTQSPSSLSASVGDTVTITCQANGYLNWYQQRRGKAPKLLIYDGSKLERGVPSRFSGRRWGQEYTLTISSLQPEDIATYFCQVYEFVTPGTRLDLKRTVAAPSVFIFPPSDEQLKSGTASVVCLLNNFYPREAKVQWKVDNALQSGNSQESVTEQDSKDSTYSLSSTLTLSKADYEKHKVYACEVTHQGLSSPVTKSFNRGEC | 0.96 | 0.5
1.1.33-1 (antibody, human IgG1, kappa) heavy: QVQLLQSGAAVTKPGASVRVSCEASGYNIRDYFIHWWRQAPGQGLQWVGWINPKTGQPNNPRQFQGRVSLTRHASWDFDTFSFYMDLKALRSDDTAVYFCARQRSDYWDFDVWGSGTQVTVSSASTKGPSVFPLAPSSKSTSGGTAALGCLVKDYFPEPVTVSWNSGALTSGVHTFPAVLQSSGLYSLSSVVTVPSSSLGTQTYICNVNHKPSNTKVDKKVEPKSCDKTHTCPPCPAPELLAGPDVFLFPPKPKDTLMISRTPEVTCVVVDVSHEDPEVKFNWYVDGVEVHNAKTKPREEQYNSTYRVVSVLTVLHQDWLNGKEYKCKVSNKALPLPEEKTISKAKGQPREPQVYTLPPSREEMTKNQVSLTCLVKGFYPSDIAVEWESNGQPENNYKTTPPVLDSDGSFFLYSKLTVDKSRWQQGNVFSCSVLHEALHSHYTQKSLSLSPGK light: DIQMTQSPSSLSASVGDTVTITCQANGYLNWYQQRRGKAPKLLIYDGSNLERGVPSRFSGRRWGQEYTLTISSLQPEDIATYFCQVYEFVVPGTNLDIKRTVAAPSVFIFPPSDEQLKSGTASVVCLLNNFYPREAKVQWKVDNALQSGNSQESVTEQDSKDSTYSLSSTLTLSKADYEKHKVYACEVTHQGLSSPVTKSFNRGEC | 0.87 | 0.94
1.31.33-1 (antibody, human IgG1, kappa) heavy: QVQLVQSGAEVTKPGASVRVSCEASGYNIRDYFIHWWRQAPGQGLQWVGWINPKTGQPNNPRQFQGRVSLTRHASWDFDTFSFYMDLKALRSDDTATYFCARQRSDYWDFDVWGSGTQVTVSSASTKGPSVFPLAPSSKSTSGGTAALGCLVKDYFPEPVTVSWNSGALTSGVHTFPAVLQSSGLYSLSSVVTVPSSSLGTQTYICNVNHKPSNTKVDKKVEPKSCDKTHTCPPCPAPELLAGPDVFLFPPKPKDTLMISRTPEVTCVVVDVSHEDPEVKFNWYVDGVEVHNAKTKPREEQYNSTYRVVSVLTVLHQDWLNGKEYKCKVSNKALPLPEEKTISKAKGQPREPQVYTLPPSREEMTKNQVSLTCLVKGFYPSDIAVEWESNGQPENNYKTTPPVLDSDGSFFLYSKLTVDKSRWQQGNVFSCSVLHEALHSHYTQKSLSLSPGK light: DIQMTQSPSSLSASVGDTVTITCQANGYLNWYQQRRGKAPKLLIYDGSNLERGVPSRFSGRRWGQEYTLTISSLQPEDIATYFCQVYEFVVPGTNLDIKRTVAAPSVFIFPPSDEQLKSGTASVVCLLNNFYPREAKVQWKVDNALQSGNSQESVTEQDSKDSTYSLSSTLTLSKADYEKHKVYACEVTHQGLSSPVTKSFNRGEC | 0.89 | 0.86
1.35.32-1 (antibody, human IgG1, kappa) heavy: QVQLVQSGAEVKKPGASVRVSCKASGYNIRDYFMHWWRQAPGQGLQWVGWINPKTGQPNNPRQFQGRVTMTRHASWDFDTFSFYMDLSRLRSDDTATYFCARQRTDYWDFDVWGQGTMVTVSSASTKGPSVFPLAPSSKSTSGGTAALGCLVKDYFPEPVTVSWNSGALTSGVHTFPAVLQSSGLYSLSSVVTVPSSSLGTQTYICNVNHKPSNTKVDKKVEPKSCDKTHTCPPCPAPELLAGPDVFLFPPKPKDTLMISRTPEVTCVVVDVSHEDPEVKFNWYVDGVEVHNAKTKPREEQYNSTYRVVSVLTVLHQDWLNGKEYKCKVSNKALPLPEEKTISKAKGQPREPQVYTLPPSREEMTKNQVSLTCLVKGFYPSDIAVEWESNGQPENNYKTTPPVLDSDGSFFLYSKLTVDKSRWQQGNVFSCSVLHEALHSHYTQKSLSLSPGK light: DIQMTQSPSSLSASVGDTVTITCQANGYLNWYQQRRGKAPKLLIYDGSKLERGVPSRFSGRRWGQEYTLTISSLQPEDIATYFCQVYEFVTPGTRLDLKRTVAAPSVFIFPPSDEQLKSGTASVVCLLNNFYPREAKVQWKVDNALQSGNSQESVTEQDSKDSTYSLSSTLTLSKADYEKHKVYACEVTHQGLSSPVTKSFNRGEC | 0.96 | 1.01

Source: patent US20220089698A1 (published 2022)
